# Source: patent US20150018409A1, “CHIMERIC POLYPEPTIDES AND THEIR USE” (ADRIACELL S.P.A., priority 2003, published 2015)
# B1: SCPVUTAT: single chain PvuII endonuclease (aa 1-157, GSGG linker, aa 2-157) fused to HIV Tat peptide and six histidine tag; SEQ ID NO:2 (protein, listed as Proteus vulgaris)
# chain: MSHPDLNKLLELWPHIQEYQDLALKHGINDIFQDNGGKLLQVLLITGLTVLPGREGNDAVDNAGQEYELKSINIDLTKGFSTHHHMNPVIIAKYRQVPWIFAIYRGIAIEAIYRLEPKDLEFYYDKWERKWYSDGHKDINNPKIPVKYVMEHGTKIYGSGGSHPDLNKLLELWPHIQEYQDLALKHGINDIFQDNGGKLLQVLLITGLTVLPGREGNDAVDNAGQEYELKSINIDLTKGFSTHHHMNPVIIAKYRQVPWIFAIYRGIAIEAIYRLEPKDLEFYYDKWERKWYSDGHKDINNPKIPVKYVMEHGTKIYGSYGRKKRRQRRRGGSHHHHHH
# Legend:
# [1] = system: U2OS osteosarcoma cells and IMR90 primary fibroblasts; assay: Protein transduction of the chimeric proteins (immunoblot and immunofluorescence with PvuII antibody); type: cell-based, human
# Protocol: For a comparison aliquots of the supernatants of the cell culture taken before extract preparation were included in the analysis (upper panel, SUPERNATANT).
# In addition DNA costaining was obtained with propidium J after RNAse A digest (red, upper panel).
# The transduction capacity of the chimeric proteins was assayed in U2OS osteosarcoma cells and in the IMR90 primary fibroblasts cells. The cells were grown in DMEM containing 10% FCS and treated with the proteins of the invention in the same medium, in general in the presence of antibiotics. After 10 minutes of incubation of the cells with increasing quantities of the fusion protein […] (1, 10, 50, 100, 200 nM) and with the protein SCPVU (single chain PvuII without TAT) and SC34 as a control (prepared as described for […] except that the enzyme PvuII contains a mutant in position 34) cell extracts were prepared, separated on SDS-PAGE and assayed by immuno-blot analysis with a monospecific antibody to PvuII. Further, uptake was assayed after 30 min of incubation by immuno-fluorescence analysis using PvuII specific antibodies and nuclear costaining with propidium iodide.
# [2] = system: U2OS cells; assay: Histone H2AX Ser139 phosphorylation, single cell fluorescence microscopy; type: cell-based, human; conditions: 100 nM, 60 minutes
# Protocol: U2OS cells were treated with [sequence] (100 nM, central column) for 60 minutes, in addition treatment was done with Wortmanin (50 μM, WM, right column), or with no agent as a control (left column). After treatment cells were stained with specific antibodies to H2AX-Ser-139 phosphorylated (red) or for Histone 2B (served as a control, green) and analysed on a single cell level by fluorescence microscopy.
# As another example for a phosphorylation of a substrate of ATM in response to the object of the invention, histone H2AX Ser^139 phosphorylation was analysed. […] U2OS cells were treated for 60 minutes with [sequence], fixed and analysed for histone H2AX Ser^139 phosphorylation. Cells were analysed with a specific antiserum to phospho-Ser 139 on histone H2AX and analysed in the microscope on a single cell basis. As a control histone 2B was analysed.
# [3] = system: AT-5 cells (mutated for ATM); assay: Colony forming assay; type: cell-based
# Protocol: (§1) FIG. 8. Induction of Cell Cycle Block and Clonogenic Activity by […] of Cells Mutated for ATM (AT-5) in Comparison to Non Mutated Cells (MRC-5). • A) Distribution of DNA content distribution during the cell cycle detected by FACS analysis of AT-5 cells after 36 hours of […] treatment (25 nM, 100 nM), or with adriamycin (0.02 μg/ml; ADRIAMYCIN), or with SC34 (100 nM), and as control from non treated cells. The histograms represent DNA content relative to the cell-numbers; the panel on the right indicates the percentage of the corresponding distributions of the various cell cycle phases as calculated with the MODFIT™ program-package. • B) Colony forming assay with cell lines mutated for ATM and induced for DNA damage by […].
# (§2) The cell cycle response to DSB's induced by […] treatment were analysed in p53 positive or negative cells. […] Incubation for 36 hours of the cell lines mutated for ATM (AT-5) with […] results in a transient retardation of the cell cycle, as was determined by a DNA content FACS analysis. […] A single addition of […] for 60 minutes to the AT-5 cells was sufficient to induce cell cycle stop after 24 hours (FIG. 8A) and finally leads to cell death, obtained from not correctly ligated DNA, and consequently, the clonogenic activity after a single treatment with […] for 60 minutes was below 0.02% for AT-5 cells. […] In addition, the cells were incubated with adriamycin as a control.
# [4] = system: MRC-5 cells (ATM positive control); assay: Colony forming assay; type: cell-based; conditions: 60 minutes treatment, 25 nM or 100 nM
# Protocol: as §1, §2
# [5] = system: V3 (DNA-PKcs−/−) cells; assay: Clonogenic assay of CHO cells mutated in NHEJ; type: cell-based, rodent; conditions: 100 nM, 24 hours, grown 7-10 days (FIG. 9 black bar)
# Protocol: Clonogenic assay of CHO cells that were mutated for proteins involved in the NHEJ repair-pathway treated with [sequence]. The cell lines used are AA8 (parental line), V3 (DNA-PCCS^(−/−)), xrss5 (KU80^(−/−)) and XR-1 (XRCC4^(−/−)), HIS P1.13-11 (KU70^(−/−)) and the corresponding parental cell line CHO-K1. Various dilutions of the CHO cells containing the NHEJ mutations as indicated were treated for 24 hours with [sequence] (25 nM, grey bars; 100 nM, black bars) or not treated (white bars); the cells were washed and then grown for 7-10 days, stained with GIEMSA and colonies were counted.
# Moreover these NHEJ mutant cells were tested with [sequence] in clonogenic, colony-outgrowth assays that were assayed after a single addition of [sequence] for 12 hours at a concentration of 10 nM (grey bars) or at a concentration of 75 nM (black bars) or without protein treatment (not treated, white bars). Seven to ten days after addition, cell growth was analysed by staining with GIEMSA-blue and quantification of diverse cell-concentrations. […] The multiwell-microtiter-plates (for an example see FIG. 13A) were scanned using the VersaDOC® (BioRad) imaging system and growth was automatically quantified with the software package Quantify One® for the analysis of the microtiter-plates (microtiter-plates scanning software).
# [6] = system: XR-1 (XRCC4−/−) cells; conditions: single addition of SCPVUTAT
# Protocol: Clonogenic assay of CHO cells that were mutated for proteins involved in the NHEJ repair-pathway treated with […]. The cell lines used are AA8 (parental line), V3 (DNA-PCCS^(−/−)), xrss5 (KU80^(−/−)) and XR-1 (XRCC4^(−/−)), HIS P1.13-11 (KU70^(−/−)) and the corresponding parental cell line CHO-K1. Various dilutions of the CHO cells containing the NHEJ mutations as indicated were treated for 24 hours with […] (25 nM, grey bars; 100 nM, black bars) or not treated (white bars); the cells were washed and then grown for 7-10 days, stained with GIEMSA and colonies were counted.
# These cell lines were analysed in the nuclease activity assays with […] in vivo and compared to the parental cell lines as indicated. […] Seven to ten days after addition, cell growth was analysed by staining with GIEMSA-blue and quantification of diverse cell-concentrations. […] In analogy, cell growth was quantified after a single treatment with […] for 12 hours (10 nM, grey bars; 75 nM, black bars; not treated, white bars). […] The multiwell-microtiter-plates (for an example see FIG. 13A) were scanned using the VersaDOC® (BioRad) imaging system and growth was automatically quantified with the software package Quantify One® for the analysis of the microtiter-plates (microtiter-plates scanning software).
# [7] = system: MO59J (DNA-PKcs−/−) glioblastoma cells compared to MO59K; assay: Colony forming assay with automatic analysis (VersaDoc); type: cell-based, human; design: dose or concentration left out as unconfirmed; conditions: single treatment for 12 hours
# From the text: Statistical analysis of the results was done and is represented as a histogram. […] An example of the colony forming assay is shown. The assay was done employing various concentrations of cells in the order of three magnitudes (from the upper to the lower rows, 1×10^4, 2×10^3, 4×10^2, 8×10). On the right B), the histograms of the results from the colony forming assay of the cell-lines MO59J compared to MO59K is shown. The assays were done as in FIG. 9 but analysed with the aid of the Versadoc 4 (BioRad) system. […]
# [8] = system: neuroblastoma cells G1-LIN; assay: Apoptosis by FACS analysis of DNA content (below 2N); type: cell-based; conditions: 30 hours
# Protocol: FACS analysis of the DNA content stained with propidium J^− of the neuroblastoma cells G1-LIN after […] treatment (10 nM, panel C; 100 nM panel B). The treatment of the samples was done for 30 hours. As a control samples treated with SC34 were used (100 nM, panel D) or not treated (panel A). At the bottom of each panel the representative percentage of the cell cycle phase distributions obtained are indicated (G1/S/G2-M). (A) indicates apoptotic cells.
# [9] = system: AT-5 cells (ATM negative); conditions: SCPVUTAT 100 nM or HU 1 mM
# Protocol: AT-5 cells, negative for ATM were treated with [sequence]
# P53 phosphorylation on Ser15 in response to [sequence] treatment was assayed in ATM positive or negative cell lines (MRC-5 and AT-5 respectively). For comparison parallel experiments were done with hydroxyurea (HU). […] For this immunoblotting experiments were done with extracts after treatment, by using specific antibodies to a phosphorylated Ser15 in p53 for specific detection.
molecule,measurement,setting,value
B1,import / enrichment in the cells,"[1]; 1-200 nM SCPVUTAT, controls 200 nM, 10 min incubation, immunoblot with PvuII antibody",enriched in the cells and in particular in the nucleus
same,"uptake, share of the cells analysed","[1]; protein added to culture medium (DMEM, 10% FCS), immunoblot after 10 min, immunofluorescence after 30 min",~100%
same,histone H2AX Ser139 phosphorylation,[2],rapidly induces histone H2AX Ser^139 phosphorylation
same,colonies relative to non treated cells (100%),"[3]; 100 nM, 60 minutes, grown 7-10 days (FIG. 8B black bar)",~0%
same,clonogenic activity,[3]; single treatment for 60 minutes,below 0.02%
same,sensitivity in colony forming assay compared to AT-5,[4],less sensitive
same,colonies relative to non treated cells (100%),[5],below 1%
same,sensitivity in clonogenic assay,[6],hypersensitive to blunt end DSB's
same,sensitivity in colony forming assay versus parental MO59K,[7],significant differential increase in sensibility
same,apoptotic cells,[8]; 10 nM,18%
same,apoptotic cells,[8]; 100 nM,more than 29%
same,p53-Ser15 phosphorylation,[9],specific phosphorylation of p53-Ser^15 is obtained
